Literature values as cited in article PMC11893814.

Target: wild-type microtubule GTP cap (Homo sapiens) (UniProt P68363)
UniProt P68363, sequence (P68363 whole entry, chain 1 of 2): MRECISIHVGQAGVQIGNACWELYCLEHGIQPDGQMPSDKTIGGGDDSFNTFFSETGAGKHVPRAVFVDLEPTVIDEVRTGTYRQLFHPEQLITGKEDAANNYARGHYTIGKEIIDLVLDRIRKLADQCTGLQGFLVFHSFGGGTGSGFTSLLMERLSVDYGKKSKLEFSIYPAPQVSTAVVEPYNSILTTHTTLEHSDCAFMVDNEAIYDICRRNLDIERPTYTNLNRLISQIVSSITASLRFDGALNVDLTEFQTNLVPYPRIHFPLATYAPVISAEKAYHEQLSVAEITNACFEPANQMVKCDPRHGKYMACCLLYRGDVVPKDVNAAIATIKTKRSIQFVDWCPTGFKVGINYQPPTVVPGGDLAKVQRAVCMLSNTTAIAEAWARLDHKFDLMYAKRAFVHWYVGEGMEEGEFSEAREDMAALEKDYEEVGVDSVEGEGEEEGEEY
UniProt P68363, sequence (A8K854 whole entry, chain 2 of 2, further chain): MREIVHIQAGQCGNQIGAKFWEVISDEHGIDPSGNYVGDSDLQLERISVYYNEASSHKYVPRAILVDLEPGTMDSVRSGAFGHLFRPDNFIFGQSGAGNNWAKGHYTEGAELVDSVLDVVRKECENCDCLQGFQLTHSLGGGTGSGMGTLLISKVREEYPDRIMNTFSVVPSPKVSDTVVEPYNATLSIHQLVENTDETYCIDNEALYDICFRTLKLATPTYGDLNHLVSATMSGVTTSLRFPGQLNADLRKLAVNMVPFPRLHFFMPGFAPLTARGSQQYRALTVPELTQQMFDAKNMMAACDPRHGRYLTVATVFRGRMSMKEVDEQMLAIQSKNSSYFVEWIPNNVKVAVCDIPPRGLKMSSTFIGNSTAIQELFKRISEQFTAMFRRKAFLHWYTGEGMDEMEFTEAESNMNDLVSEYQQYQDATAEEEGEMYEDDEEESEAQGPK

Kd: 39.6 nM
Substance: EB3 (from UniProt Q9UPY8)
